In patent US20230143604A1, “QW DOSING OF GIP RECEPTOR AGONIST PEPTIDE COMPOUNDS AND USES THEREOF” (TAKEDA PHARMACEUTICAL COMPANY LIMITED, priority 2020, published 2023):
Starred links: 1 amine or outer side, 2 acyl side, 3 side chain; linkers in the order of their positions; H or OH if unused. Non-standard residues stand in square brackets, D forms with d. Groups on a side chain read outwards from the residue. No end group written: not given here. *: point of attachment. C20 diacid = O=C(O)CCCCCCCCCCCCCCCCCCC(=O)*; C18 diacid = O=C(O)CCCCCCCCCCCCCCCCC(=O)*; C17 diacid = O=C(O)CCCCCCCCCCCCCCCC(=O)*; γGlu = O=C(O)[C@H](CCC(=O)[*:2])N[*:1]; NMeY = CN[C@@H](Cc1ccc(O)cc1)C(=O)O; AEEA = NCCOCCOCC(=O)O; Aib = CC(C)(N)C(=O)O

T1: full-length human GIPR with an N-terminal FLAG tag (human, UniProt P48546 22-466)
T1 sequence (looked up): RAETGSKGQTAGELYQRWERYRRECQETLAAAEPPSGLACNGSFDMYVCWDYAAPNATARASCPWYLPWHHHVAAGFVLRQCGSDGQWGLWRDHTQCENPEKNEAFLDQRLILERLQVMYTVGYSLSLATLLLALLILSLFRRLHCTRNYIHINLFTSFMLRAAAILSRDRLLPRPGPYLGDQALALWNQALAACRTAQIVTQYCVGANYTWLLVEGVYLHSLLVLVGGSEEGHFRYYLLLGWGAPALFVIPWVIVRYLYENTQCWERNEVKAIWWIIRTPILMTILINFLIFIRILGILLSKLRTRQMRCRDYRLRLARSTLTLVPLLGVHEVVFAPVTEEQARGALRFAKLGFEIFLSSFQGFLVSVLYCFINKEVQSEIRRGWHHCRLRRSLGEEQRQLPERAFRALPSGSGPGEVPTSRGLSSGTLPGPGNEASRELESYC


Tests used:
[1] = target: T1, full-length human GIPR with an …; experiment: cell-based or functional assay
[2] = target: full-length human GLP-1R with an N-terminal FLAG tag (human, UniProt P43220 24-463); experiment: cell-based or functional assay

Row | Binder | Human GIPR cAMP EC50, HEK293T [1] | Human GLP1R cAMP EC50, HEK293T [2]
1 | [NMeY][Aib]EGTFISDYSIALDR[Aib]AQ[Aib]K([2OEGgEgE-C17 diacid])FVNWLLAQR-OH [Compound No. 9] | 0.0004 nM | 7.94 nM
2 | [NMeY][Aib]EGTFISDYSI[Aib]LDR[Aib]AQ[Aib]K([AEEA-AEEA-γGlu-γGlu-C20 diacid])FVNWLLAQRPSSGAPPPS-NH2 [Compound No. 101] | 0.0009 nM | 39.8 nM
3 | [NMeY][Aib]EGTFISDYSI[Aib]LDR[Aib]AQ[Aib]K([2OEGgEgE-C18 diacid])FVNWLLAQSPSSGAPPPS-NH2 [Compound No. 90] | 0.0005 nM | 72.4 nM
4 | [NMeY][Aib]EGTFISDYSIALDR[Aib]AQ[Aib]K([AEEA-AEEA-γGlu-γGlu-C18 diacid])FVNWLLAQSPSSGAPPPS-NH2 [Compound No. 97] | 0.0006 nM | 52.5 nM
5 | [NMeY][Aib]EGTFISDYSI[Aib]LDR[Aib]AQ[Aib]K([AEEA-γGlu-γGlu-C18 diacid])FVNWLLAQSPSSGAPPPS-NH2 [Compound No. 93] | 0.0006 nM | 29.5 nM
6 | [NMeY][Aib]EGTFISDYSIALDR[Aib]K([GGPAPAP-C18 diacid])Q[Aib]DFVNWLLAQSPSSGAPPPS-OH [Compound No. 102] | 0.0005 nM | 117 nM
7 | [NMeY][Aib]EGTFISDYSI[Aib]LDR[Aib]AA[Aib]K([AEEA-AEEA-γGlu-γGlu-C18 diacid])FVNWLLAQRPSSGAPPPS-NH2 [Compound No. 106] | 0.0004 nM | 12 nM
8 | [NMeY][Aib]EGTFISDYSIALDR[Aib]K([AEEA-AEEA-γGlu-γGlu-C20 diacid])Q[Aib]NFVNWLLAQSPSSGAPPPS-NH2 [Compound No. 99] | 0.0005 nM | 479 nM
9 | [NMeY][Aib]EGTFISDYSIALDR[Aib]AQ[Aib]K([GGPAPAP-C18 diacid])FVNWLLAQSPSSGAPPPS-OH [Compound No. 103] | 0.0017 nM | 29.5 nM
10 | [NMeY][Aib]EGTFISDYSI[Aib]LDR[Aib]AA[Aib]K([AEEA-AEEA-γGlu-γGlu-C18 diacid])FVNWLLAQSPSSGAPPPS-NH2 [Compound No. 107] | 0.0004 nM | 45.7 nM
11 | YXEGTFISDYSIXXDRXAQXNFVNWLLAQSPSSGAPPPS (N-methyl Tyr 1; Aib at 2,13,17,20; Lys(G5-C17 diacid) at 14; C-terminal OH) [Compound No. 95] | 0.0004 nM | 17.4 nM
12 | YXEGTFISDYSIXXDRXAQXNFVNWLLAQSPSSGAPPPS (N-methyl Tyr 1; Aib at 2,13,17,20; Lys(G5-C18 diacid) at 14; C-terminal OH) [Compound No. 96] | 0.0003 nM | 9.55 nM
13 | [NMeY][Aib]EGTFISDYSI[Aib]LDR[Aib]K([2OEGgEgE-C18 diacid])Q[Aib]DFVNWLLAQSPG-OH [Compound No. 87] | 0.0004 nM | > 1000 nM
14 | YXEGTFISDYSIXXDRXAQXDFVEWLLAQRG (N-methyl Tyr 1; Aib at 2,13,17,20; Lys(G5-C18 diacid) at 14; C-terminal OH) [Compound No. 108] | 0.0002 nM | 41.7 nM
15 | YXEGTFISDYSIXLDRXAQXDFVNWLLAQSPG (N-methyl Tyr 1; Aib at 2,13,20; Lys(G5-C18 diacid) at 17; C-terminal OH) [Compound No. 88] | 0.0004 nM | 13.5 nM
16 | [NMeY][Aib]EGTFISDYSI[Aib]LDR[Aib]AQ[Aib]K([2OEGgEgE-C18 diacid])FVNWLLAQSPG-OH [Compound No. 85] | 0.0004 nM | 41.7 nM
17 | [NMeY][Aib]EGTFISDYSIAK([GGPAPAP-C18 diacid])DR[Aib]AQ[Aib]DFVNWLLAQSPSSGAPPPS-OH [Compound No. 105] | 0.0005 nM | 562 nM
18 | [NMeY][Aib]EGTFISDYSI[Aib]LDR[Aib]AQ[Aib]K([AEEA-AEEA-γGlu-γGlu-C17 diacid])FVNWLLAQSPSSGAPPPS-NH2 [Compound No. 94] | 0.0006 nM | 63.1 nM
19 | [NMeY][Aib]EGTFISDYSIALDR[Aib]AQ[Aib]K([2OEGgEgE-C18 diacid])FVNWLLAQSPG-OH [Compound No. 86] | 0.0003 nM | 58.9 nM
20 | [NMeY][Aib]EGTFISDYSI[Aib]LDR[Aib]AQ[Aib]K([AEEA-γGlu-AEEA-γGlu-C18 diacid])FVNWLLAQSPSSGAPPPS-NH2 [Compound No. 92] | 0.0006 nM | 36.3 nM
21 | [NMeY][Aib]EGTFISDYSI[Aib]LDR[Aib]AQ[Aib]K([2OEGgEgE-C18 diacid])FVNWLLAQRPSSGAPPPS-NH2 [Compound No. 89] | 0.0004 nM | 42.7 nM
22 | [NMeY][Aib]EGTFISDYSIALDR[Aib]AQ[Aib]K([GGPAPAP-γGlu-C18 diacid])FVNWLLAQSPSSGAPPPS-OH [Compound No. 104] | 0.0005 nM | 66.1 nM
23 | [NMeY][Aib]EGTFISDYSI[Aib]LDR[Aib]K([AEEA-AEEA-γGlu-γGlu-C18 diacid])Q[Aib]NFVNWLLAQSPSSGAPPPS-NH2 [Compound No. 100] | 0.0006 nM | > 1000 nM
24 | [NMeY][Aib]EGTFISDYSI[Aib]LDR[Aib]AQ[Aib]K([AEEA-AEEA-γGlu-C18 diacid])FVNWLLAQSPSSGAPPPS-NH2 [Compound No. 91] | 0.0005 nM | 30.9 nM
